The data set is described as follows: yeast display, Sf9 membrane polyspecificity reagent, FACS + sequencing; frameworks hold sequencing errors. An outline of the steps: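 A synthetic nanobody library was expressed on Saccharomyces cerevisiae BJ5465 by galactose induction for 36–48 hours. The library was stained for 1 hour at 4 °C with 10% biotinylated, detergent-solubilized Sf9 membrane reagent and enriched with streptavidin microbeads before FACS. Low and high (top ~1%) gates were set on anti-HA fluorescence for expression and streptavidin fluorescence for reagent binding, and each polyreactivity label reflects the gate of origin.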
In the case of “QVQLVESGGGLVQAGGSLRLSCAASGSTSVINAMGGNRQAPGKERELVAGISGSGGSTYYADSVKGRFTISRDNAKNTVYLLMNSLKPEDTAVYYCAKRFYRPVPGGYYWGQGTQVTVSS”, the “polyreactivity (PSR sort gate)” value was “high polyreactivity”. For “QVQLVESGGGLVQAGGSLRLSCAASGSTSVVNAMGWYRQAPGKERELVAAISTGGASTYYADSVKGRFTISRDNAKNTVYLQMNSLNPEDTAVYYCAADLGYEYDYWGQGTQVTVSS” the value was “high polyreactivity”; for “QVQLVESGGGLVQAGGSLRLSCAASGSTSVYYAMGWYRQTPGKERELVAAINWNGGRTYYADSVKGRFTISRDNAKNTVYLQMNSLKPEDTAVYYCATDSGDGEGDYWGQGTQVTVSS”, “low polyreactivity”; for “QVQLVESGGGLVQAGGSLRLSCAASGSTSWRNTMGWYRQAPGKERELVAAIRNVGSTYYADSVKGLFTISRDNAKNTVYLQMNSLKPEDTAVYYCNARWRFLYDYWGQGTQVTVSS”, “high polyreactivity”. For “QVQLVESGGGLVQAGGSLRLSCAASGSTSYRYAMGWYRQAPGKQRELVAGITRSGGSTYYADSVKGRFTMSRDNAKNSVYLQMNSLKPEDTAVYYCAAYYSRQYVGYGYWGQGTQVTVSS” the value was “high polyreactivity”.

With “QVQLVESGGGLVQAGGSLRLSCAASGSTSYWYAMGWYRQAPGKERELVAAISSDDSTNYADSVKGRFTISRDNAKNTVYLQMNSLKPEDTAVYYFNREHYLIRYDYWGQGTQVTVSS”, the “polyreactivity (PSR sort gate)” value is recorded as “low polyreactivity”. To “QVQLVESGGGLVQAGGSLRLSCAASGSTTYYAMGWYRQAPGKERELVAAISYSGGSTFYADSVKGRFRISRDNAKNTVYLQMNSLKPEDTAVYYCAADLGFPFDYWGQGTKVTVSS” belongs “low polyreactivity”; to “QVQLVESGGGLVQAGGSLRLSCAASGSTVESNVMGWYRQAPGKERELVAAISYSGGSTYIADSVKGRFTISRDNAKNTVYLQLNSLNPEDTAVLYSNALTSGYLYTFHRLWYPMYYWGQGTQGTVSS”, “high polyreactivity”; to “QVQLVESGGGLVQAGGSLRLSCAASGSTVFGNAMGWYRQAPGKERELVAAITSGGSTNYADSVKGRFTISRDNAKNTVYLQMNSLKPEDTAVYYCAKPSRWGWTGFYAYDYWGQGTQVTVSS”, “low polyreactivity”.

As for “QVQLVESGGGLVQAGGSLRLSCAASGSTVGLYTMGSYRHAPGKEMELFAAISWSDGSTYYEDSVKGRFTISRDNAKNTVYLQMISLKPEDTAVYYCAAEFLYQQSSWEFDYWGQGTQVTVSS”, the “polyreactivity (PSR sort gate)” value is “low polyreactivity”. To “QVQLVESGGGLVQAGGSLRLSCAASGSTVRRNTMGWYRQAPGKERELVAGISSSGGSTYYADSVKGRFTISRDNAKNTVYLQINSLKPEDTAVYYCAARFYVSYVGYNYWGQGTQVTVSS” belongs “high polyreactivity”; to “QVQLVESGGGLVQAGGSLRLSCAASGSTVRVYAMGWYRQAPGKERELVARISITGGTTRYADSVKGRFTISRDNAKNTVYLQMNSLKPEDTAVYYCNADYDWYYWYLYKYPFDYWRQGTQVTVSS”, “low polyreactivity”.

On to “QVQLVESGGGLVQAGGSLRLSCAASGSTVTSNAMGWSRQAPGKERELVAAISSGGSTYYADSVKGRFTISRDNAKNTVYLQMNSLKPEDTAVYYCAAEWHYIYAYDYWGQGTQVTVSS”, for which the “polyreactivity (PSR sort gate)” value is “low polyreactivity”.

Regarding “QVQLVESGGGLVQAGGSLRLSCAASGSTVVYYAMGWYRQAPGKERELVAAITSGGSTNYADSVKGRFTISRDNAKITVYLQMNSLKPEDTAVYYCNAEPETTIDYWGQGTQVTVSS”, the “polyreactivity (PSR sort gate)” value is given as “low polyreactivity”. Take “QVQLVESGGGLVQAGGSLRLSCAASGSTVWKYVMGWYRQAPGKERELVAAISNSGVNTYYADSVKGRFTISRDNAKNTVYLQMNSLKTEDTAVYYCAADRGGYEYWGQGTQVTVSS”: the “polyreactivity (PSR sort gate)” value is recorded as “high polyreactivity”.

Consider “QVQLVESGGGLVQAGGSLRLSCAASGSTVYQYVMGRYRQAPGKVREFVAAITFSGSRTYYADSVKGRFTISRDNAKNTVYLQMNSLKPEDTAVYYCAVHSTSPRGKRYEYWGQGTQVTVSS”, for which the “polyreactivity (PSR sort gate)” value is “high polyreactivity”. To “QVQLVESGGGLVQAGGSLRLSCAASGSTVYVYAMGWYRQAPGKERELVATISSSGAITYYADSVKGRFTISRDNAKNTVYLQMNSLKPEDTAVYYCARTGSLLSQVWYNYWGQGTQVTVSS” belongs “low polyreactivity”. To “QVQLVESGGGLVQAGGSLRLSCAASGSTWYYAMGWYRQAPGKERELVATISSGSRTYYADSVKGRFTISRDNAKNTVYLQMNSLKPEDTAVYYCAARESYAELNYWGQGTQVTVSS” belongs “high polyreactivity”. To “QVQLVESGGGLVQAGGSLRLSCAASGSTWYYAMGWYRQAPGKERELVATISSGSRTYYADSVKGRFTISRDNAKNTVYLQMNSLKPEDTAVYYCAARRRRFYYQYYRYDYWGQGTQVTVSS” belongs “high polyreactivity”. For the sequence “QVQLVESGGGLVQAGGSLRLSCAASGSTYAGYAMGWYRQAPGKERELVAAISRRGGSTYYADSVKGRFTISRDNAKNTVYLQMNSLKPEDTAVNYCNRDKYLRDPDYDYWGQGTQVTVSS”, the “polyreactivity (PSR sort gate)” value is recorded as “low polyreactivity”. To “QVQLVESGGGLVQAGGSLRLSCAASGSTYANAMGWYRQAPGKERELVAAITDNGGRTYYADSVKGRFTISRDNAKNTFYLQMNSLKPEDTAVYYCAARSSVWGQGTQVTVSS” belongs “low polyreactivity”.

As for “QVQLVESGGGLVQAGGSLRLSCAASGSTYARYAMGWYRQAPGKEREFVAAISASGGRTYYADSVKGRFTISRDNAKNTVYLQMNSLKPEDTPVDYCAVRVYAKYFAKYDYWGQGTQVTVSS”, the “polyreactivity (PSR sort gate)” value is recorded as “high polyreactivity”. As to “QVQLVESGGGLVQAGGSLRLSCAASGSTYAYAMGWYRQAPGKEREFVAAITRSGGSTYYADSVKGRFTISRDNAKITVYLQMNSLKPEDTAVYYCRGNSTSWRGSQMDYWGQGTQVTVSS”, the “polyreactivity (PSR sort gate)” value is “high polyreactivity”. In the case of “QVQLVESGGGLVQAGGSLRLSCAASGSTYENAMGWYRQAPGKERELVAVISRSGGSTYYADSVKGRFTISRDNAKNTVYLQMNSLKPEDTAVYYCATVYSAWSWVHGYYVAMDYWGQGTQVTVSS”, the “polyreactivity (PSR sort gate)” value is “high polyreactivity”.

With “QVQLVESGGGLVQAGGSLRLSCAASGSTYERYAMGWYRQAPGKERELVAAISAIGDSTYYADSVKGRITISRDNANNTVYLQMNSLKPEDTAVYYCAARYTRYHIGRGYYYWGQGTQVTVSS”, the “polyreactivity (PSR sort gate)” value is on record as “high polyreactivity”. To “QVQLVESGGGLVQAGGSLRLSCAASGSTYFHYAMGWYRQAPGKERELVAAISKSVGTTYYADSVKGRFTISRDNAKNTVYLQMNSLKPEDPAVYYCAADSVITWWAYDYWGQGTQVTVSS” belongs “high polyreactivity”; to “QVQLVESGGGLVQAGGSLRLSCAASGSTYPYYAMGWYRQAPGKERELVAAITSSTGRTYYADAVKGRFTISRDNAKNTVYLQMNSLKPEDSAVYYCATYSTSVAYHLYYWGQGTQVTVSS”, “low polyreactivity”; to “QVQLVESGGGLVQAGGSLRLSCAASGSTYQGNAMGWYRQAPGKERELVAAISRSGGSTYADSVKGRFTISRDNAKNTVYLQMNSLKPEDTAVYYCAAYSGVGYLWFDYWGQGTQVTVSS”, “low polyreactivity”. In the case of “QVQLVESGGGLVQAGGSLRLSCAASGSTYQNAMGWYRQAPGKEREFVAAISWSGGSTYYADSVKGRFTISRDNAKNTVYLQMNSLKPEDTAVYYCAAYSYFSPRYDYWGQGTQVTVSS”, the “polyreactivity (PSR sort gate)” value is “high polyreactivity”. To “QVQLVESGGGLVQAGGSLRLSCAASGSTYRGNAMGWYRQAPGKEREFVAAITVSGGSTYYADSVKGRFTISRDNAKNTVFLQMNSLKPEDTAVYYCAARLTYNYYWGQGTQVTVSS” belongs “high polyreactivity”. For “QVQLVESGGGLVQAGGSLRLSCAASGSTYTNAMGWYRQAPGKERELVAAITWSGGTTYYADSVKGRFTISLDNAKNTVYLPMNSLKPEDTAVYYCAAEYRWYSWGQGTQVSVSS” the value was “high polyreactivity”. To “QVQLVESGGGLVQAGGSLRLSCAASGSTYTRYAMGLYRQAPGKEMELVATINVSGDRTYYADSVKGRFTISRDNAKNTVYLQMNSLKPEDTAVYYCNKYRYQWPYRRFDYWGQGTQVTVSS” belongs “high polyreactivity”; to “QVQLVESGGGLVQAGGSLRLSCAASGSTYYRYDMGWYRQAPGKERELCAAINWNGGTTYYADSVKGRFTISRDNAKNNVYLQMNSLKPEDTAVYYCTARSNSYVYPRLYNYWGQGTQVTVSS”, “high polyreactivity”. For the sequence “QVQLVESGGGLVQAGGSLRLSCAASGSTYYTYAMGWYRQAPGKERELVAAISWSGGTTYYADSVKGRFTISRDNAKNTVSLQMNSLKPEATAVYYCASDRDGILKANVYWGQCTQVTVSS”, the “polyreactivity (PSR sort gate)” value was “low polyreactivity”. To “QVQLVESGGGLVQAGGSLRLSCAASGTFAVYTMGWYRQAPGKERELVAAISSGGSTYYADSVKGRFTISRDNAKNTVYLQMNSLKPEDTAVYYCAKVPGRYRADRYWDHYSHDYWGQGTQVTVSS” belongs “high polyreactivity”. For “QVQLVESGGGLVQAGGSLRLSCAASGTFAVYTMGWYRQAPGKERELVAAITKSGGSTYYADSVKGRFTISRDNAKNTVYLQMNRLKPEDTAVYYCATRDSPRTKNGYYYWGQGTQVTVSS” the value was “high polyreactivity”; for “QVQLVESGGGLVQAGGSLRLSCAASGTFGLYAMGWYRQAPGKERELVAAIRARGGSTYYADSVKGRFTISRDNAKNTLYLQKNSLKPEETAVYYCAAEFWDVALARKQWYDYWGQGTQVTVSS”, “high polyreactivity”; for “QVQLVESGGGLVQAGGSLRLSCAASGTFSFYAMGWYRQAPGKERELVATIRSGGRTYYADSVKGRFTISRDNAKNTVYFQINSLKPEDTAVYYCAKTGFLGLRQYGYWGQGTQVTVSS”, “high polyreactivity”.

Consider “QVQLVESGGGLVQAGGSLRLSCAASGTFTGNAMGSYRQAPGKERELVAAITWSGGRTYYADSVKGRFTISRDNAKNTVYLQMNSLKPEDTAVYYCNAADEYLQERFWSDAFDYWGQGTQVTVSS”, for which the “polyreactivity (PSR sort gate)” value is recorded as “high polyreactivity”. Regarding “QVQLVESGGGLVQAGGSLRLSCAASGTFVSYVMGWYSQPPGKERELVAAINVRGASTYYADSVKGRFTISRDNAKITVYLQMNTLKPEDTAVYYCATEYVSGPEYDYWGQGTQVTVSS”, the “polyreactivity (PSR sort gate)” value is “low polyreactivity”. To “QVQLVESGGGLVQAGGSLRLSCAASGTFVTYMGWYRQAPGKERELVAVISASGDSVKGRFTISRDNAKNTVYLQMNSLNPEDTAVYYCARELYRRVWHHWAYWAAYDYWGQGTQVTVSS” belongs “low polyreactivity”.

(Values after the nanobody polyreactivity screen of Harvey et al. (2022).)
